One experiment concerns the target human CD28 (human) (UniProt P10747). Kind of experiment: flow cytometry, transfected cells.
The target in another experiment is human PD-L1 (human) (UniProt Q9NZQ7). Kind of experiment: flow cytometry, transfected cells.
Experiment [1] has as its target human CD28, full-length, expressed on Expi293 cells (human) (UniProt P10747). Kind of experiment: flow cytometry, transfected cells.
The target of experiment [2] is human PD-L1, full-length, expressed on Expi293 cells (human) (UniProt Q9NZQ7). Kind of experiment: flow cytometry, transfected cells. (In flow cytometry, cells or beads pass a laser one at a time.)
Experiment [3] deals with human CD28, full length, expressed on transfected Expi293 cells (human) (UniProt P10747). Kind of experiment: flow cytometry, Expi293 cells transfected with human CD28.

As for “variant ICOSL ECD-Fc T43A, N52H, N57Y, L74Q, D89G, V110D, F172S (Fc fusion)”, in the experiment with human CD28 (human), the parental ratio was found to be 0.49. The molecule “stacked IgV-Fc: Domain 1 CD80 WT / Domain 2 ICOSL WT (Fc fusion)” displayed an MFI with human PD-L1 (human) of 1230 MFI.

“stacked IgV-Fc fusion: domain 1 NKp30 WT, domain 2 ICOSL WT” returned an MFI in experiment [1] of 6340 MFI. In the case of “CD80 K36G/K37Q/M38I/L40M/F59L/E81V/L85R/K89N/A91T/F92P/K93V/R94L/E99G/T130A/N149S ECD-Fc (Fc fusion)”, the MFI ratio to WT CD80 (parental ratio) in experiment [1] worked out at 0.1. Consider “stacked IgV-Fc fusion: domain 1 ICOSL WT, domain 2 NKp30 WT”, for which the MFI in experiment [1] worked out at 7920 MFI. As for “stacked IgV-Fc fusion: domain 1 CD80 WT, domain 2 ICOSL WT”, the MFI in experiment [1] amounted to 1230 MFI; in experiment [2] it was 2660 MFI. With “stacked IgV-Fc: Domain 1 ICOSL WT / Domain 2 CD80 WT (Fc fusion)”, the MFI in the experiment with human PD-L1 (human) was 3000 MFI.

B1: ICOSL F120S/Y152H/N201S variant ECD-Fc fusion (Fc fusion)
chain: DTQEKEVRAMVGSDVELSCACPEGSRFDLNDVYVYWQTSESKTVVTYHIPQNSSLENVDSRYRNRALMSPAGMLRGDFSLRLFNVTPQDEQKFHCLVLSQSLGFQEVLSVEVTLHVAANSSVPVVSAPHSPSQDELTFTCTSINGYPRPNVHWINKTDNSLLDQALQNDTVFLNMRGLYDVVSVLRIARTPSVNIGCCIESVLLQQNLTVGSQTGNDIGERDKITENPVSTGEKNAATAAAEPKSSDKTHTCPPCPAPELLGGPSVFLFPPKPKDTLMISRTPEVTCVVVDVSHEDPEVKFNWYVDGVEVHNAKTKPCEEQYGSTYRCVSVLTVLHQDWLNGKEYKCKVSNKALPAPIEKTISKAKGQPREPQVYTLPPSREEMTKNQVSLTCLVKGFYPSDIAVEWESNGQPENNYKTTPPVLDSDGSFFLYSKLTVDKSRWQQGNVFSCSVMHEALHNHYTQKSLSLSPGK
Regarding B1, the MFI ratio to parental (WT ICOSL) in experiment [3] turned out to be 0.89.

(Values after patent US20240409660A1.)
